B1: TPR t1 (parent)
chain: GACCAAUCUGCCCUCAGAGCUCGAGAACAUCUUCGGAUGCAGAGGAGGCAGGCUUCGGUGGCGCGAUAGCGCCAACGUCCUCAACCUCCAAUGCAUCCCACCACAUGAUGAUGCCUGAAGAGCCUUGGUUUUUUG

Variants of: B1
Assay: polymerase ribozyme fitness, log enrichment relative to wild type (log ratio); higher = more active; in vitro selection for triplet polymerase activity
Outline: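 Genotype fitness is the logarithm of its enrichment divided by wild-type enrichment, using inverse-variance-weighted averages of replicates. That logarithm is base 2. Enrichment was measured by Illumina sequencing of input and output libraries from one triplicate in vitro selection round, with frozen incubation at −7 °C, on PCR-built, transcribed mutant libraries of each subunit of a heterodimeric triplet polymerase ribozyme, retaining genotypes with ≥10 input reads and ≥1 read per output.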
For GACCAAUCUGCCCUCAGAGCUCGAGAACAUCUUCGGGUGCAGAGCAGGCAGGCUUCGGUGGCGCGAUAGCGCCAACGUCCUCAACCUCUAAUGCGUCCCACCACAUGAUGAUGCCUGAAGAGCCUUGGUUUUUUG, the “polymerase ribozyme fitness (log ratio)” value was -5.88.
In the case of GACCAAUCUGCCCUCAGAGCUCGAGAACAUCUUCGGUUGCAGAGGAGGCAGGCUUCGGUGGCGCGAUAGCGCCCACGUCCUCAACCUGCAAUGCAUCCCACCACAUGAUAAUGCCUGAAGAGCCUUGGUUUUUUG, the “polymerase ribozyme fitness (log ratio)” value is reported as -3.27.
For GACCAAUCUGCCCUCAGAGCUCGAGAACAUCUUCGGUUGCAGAGGAGGCAGGCUUCGGUGGCGCGAUAGCGCCAACGUCCUCAACCUCCAAUGCAUCCCACCACAUGAUGAUGCCUGAAGAGUCUUGGUUUUUUG, the “polymerase ribozyme fitness (log ratio)” value was 0.6.
For GACCAAUCUGCCCUCAGAGCUCGAGAACAUCUUCGGGUGCAAAGGAGGCAGGCUUCGGUGACGCGAUAGCGCCAACGUCCUCAACCUCCAAUGCAUCCCACCACAUGAUGAUGCCUGAAGAGCCUUGGUUUUUUG, the “polymerase ribozyme fitness (log ratio)” value was -1.68.
For GACCAAUCUGCCCUCAGAGCUCGAGAACAUCUUCGGGUGCAGAGGAGGCAGGCUUCGGUCGCGCGAUAGCGCCAACGUCCUCAACCUCCAAUGCAUCCCACCACAUGAUGAUGCCUAAAGAGCCUUGGUUUUUUG, the “polymerase ribozyme fitness (log ratio)” value was -1.95.
In the case of GACCAAUCUGCCCUCAGAGCUCGAGAACAUCUUCGGUUGCAGAGGAGGCACGCUUCGGUGGCGCGAUAGCGCCAACGUGCUCAACCUCCAAUGCAUCCCACCACAUGAUGAUGCCUGGAGAGCCUUGGUUUUUUG, the “polymerase ribozyme fitness (log ratio)” value is reported as -3.37.
With GACCAAUCUGCCCUCAGAGCUCGAGAACAUCUUCGGGUGCAGAGGAGGCAGGCUUCGGUGGCGCGAUAGCUCCAACGUCCUCAACCUCCAAUGCAUCCCACCACAUGAUGAUGCCUGAAGAGCCUUGGUUUUUUG the “polymerase ribozyme fitness (log ratio)” value was -1.09.
In the case of GACCAAUCUGCCCUCAGAGCUCGAGAACAUCUUCGGUUGCAGAGGUAGCAGGCUUCGGUGGCGCGAUAGCGCCAACGUCCUCAACCUCCAAUGCAUCCCACCACAUGAUGAUGCCUGAAGAGGCUUGGUUUUUUG, the “polymerase ribozyme fitness (log ratio)” value is reported as -1.6.
In the case of GACCAAUCUGCCCUCAGAGCUCGAGAACAUCUUCGGUUGCAGAGGUAGCAGGCUUCGGUGGCGCGAUAGCGCCAACGUCCUCAACCUCCAAUGCAUCCCACCACAUGAUGAUGCCUGAAGAGCCUUGGUGGUUUG, the “polymerase ribozyme fitness (log ratio)” value is reported as -3.56.
With GACCAAUCUGCCCUCAGAGCUCGAGAACAUCUUCGGUUGCAGAGGAGUCAGGCUUCUGUGGCGCGAUAGCGCCAACGUCCUCAACCUCCAAUGCAUCCCACCACAUGAUGAUGCCUGAAGAGCCUUGGCUUUUUG the “polymerase ribozyme fitness (log ratio)” value was -1.96.
With GACCAAUCUGCCCUCAGAGCUCGAGAACAUCUUCGGUUGCAGAGGAGGCAGGCUUGGGUGGCGCGAUAGCGCCAACGUCCUCAACCUCCAAUGCAUCCCACCACAUGAUGAUGACUGAAGAGCCUUGGUUUUUUG the “polymerase ribozyme fitness (log ratio)” value was -1.64.
In the case of GACCAAUCUGCCCUCAGAGCUCGAGAACAUCUUCGGUUGCAGUGGAGGCAGGCUUCGGUGGCGCGAUAGCGCAAACGUCCUCAACCUCCAAUGCACCCCACCACAUGAUGCAGCCUGAAGAGCCUUGGUUUUUUG, the “polymerase ribozyme fitness (log ratio)” value is reported as -4.83.
In the case of GACCAAUCUGCCCUCAGAGCUCGAGAACAUCUUCGGUUGCAGAGGAGGCAGGCUUCGGUGGCGCGAUAGCGUCAACGUCCUCAACCUCCAAUGCAUCCCACCACAUGAUGAUGCCUGAAGAGCCUUGGUUUUUUG, the “polymerase ribozyme fitness (log ratio)” value is reported as -1.56.
With GACCAAUCUGCCCUCAGAGCUCGAGAACAUCUUCGGUUGUAGAGGAGGCAGGCUUCGGUGGCGCGAUAGCGCCAACGUCCUCAACCCCCAAUGCAUCCCACCACAUGAUGAUGCCUGAAGAGCCUUGGUUUUUUU the “polymerase ribozyme fitness (log ratio)” value was -1.29.
For GACCAAUCUGCCCUCAGAGCUCGAGAACAUCUUCGGUUGCAGAGGAGGCAGGCUUCGGUGGCGCGAUAGUGCCAACGUCCUCAACCUCCAAUGCAUCCCACCACAUGAUGAUGCCUGAAGAGCCUUGGUUUUUUG, the “polymerase ribozyme fitness (log ratio)” value was -1.07.
For GACCAAUCUGCCCUCAGAGCUCGAGAACAUCUUCGGUUGCAGAGGAGGCAGGCUUCGGUGGCGCGAUAGCGCCAACGUCCUCAACCUCCAAUGCAUCCCAACACAUGAUGAUGCCUGAAAAGCCUUGGUUUUUUG, the “polymerase ribozyme fitness (log ratio)” value was -0.798.
With GACCAAUCUGCCCUCAGAGCUCGAGAACAUCUUCGGGUGCAGAGGAGGCAGGCUUCGGGGGCGCGAUAGCGCCAACGUCCUCAACCUCCAAUGCAUCCCACCACAUGAUGAUGCCUGAAGAGCCUUGGUUUUUUG the “polymerase ribozyme fitness (log ratio)” value was 0.0397.
In the case of GACCAAUCUGCCCUCAGAGCUCGAGAACAUCUUCGGUUGCUGAGGAGGCCGGCUUCGGUGGCGCGAUAGCGCCAACGUCCUCAACCUCCAAUGCAUCCCACCACAUGAUGAUGCUUGAAGAGCCUUGGUUUUUUG, the “polymerase ribozyme fitness (log ratio)” value is reported as -4.64.
For GACCAAUCUGCCCUCAGAGCUCGAGAACAUCUUCGGUUGCAGAGGAGGCAGGCUUGGGUGGCGCGAUAGCGCCAACGUCCUCAAUCUCCAAUGCAUCCCACCACAUGAUGAUGCCUGAAGAGCCUUGGUUUUUUG, the “polymerase ribozyme fitness (log ratio)” value was -1.26.
In the case of GACCAAUCUGCCCUCAGAGCUCGAGAACAUCUUCGGUUGCAGAGGAGGCAGGCUUCAGUGGCGCGAUAGCGCCAACGUCCUCAACCUCCAAUGCAUCCCACCACAUGAGGAUGCCUGAAGAGCCUUGGUUUUUUG, the “polymerase ribozyme fitness (log ratio)” value is reported as -5.89.
With GACCAAUCUGCCCUCAGAGCUCGAGAACAUCUUCGGUUGCACAGGAGGCAGGCUUCGGUGGCGCGAUAGCGCCAACGUCCUCAACCUCCAAUGCAUCCCACCACAUGAUGAUGCCUGAAGAGCCUUGGUUUUUUG the “polymerase ribozyme fitness (log ratio)” value was -1.65.
In the case of GACCAAUCUGCCCUCAGAGCUCGAGAACAUCUUCGGUUGCAGAGGAGGCAGGCUUCGGUGGCUCGAUAGCGCCAACGUCCUCAACCUCCAAUGCAUCCCACCACCUGAUGAUGCCUGAAGAGCCUUGGUUUUUUG, the “polymerase ribozyme fitness (log ratio)” value is reported as -5.31.
For GACCAAUCUGCCCUCAGAGCUCGAGAACAUCUUCGGUUGCAGAAGAGGCAGGCUUCGGUGGCGCGAUAGCGCCAACGUCCUCAACCUCCAAUGCAUCCCACCACAUGAUGAUCCCUGAAGAGCCUUGGUAUUUUG, the “polymerase ribozyme fitness (log ratio)” value was -3.29.
In the case of GACCAAUCUGCCCUCAGAGCUCGAGAACAUCUUCGGUUGCAGAGGAGGCAGGCUUCGGUGGCCCGAUAUCGCCAACGUCCUCAACCUCCAAUGCAUUCUACCACAUGAUUAUGCCUGAAGAGCCUUGGUUUUUUG, the “polymerase ribozyme fitness (log ratio)” value is reported as -5.81.
For GACCAAUCUGCCCUCAGAGCUCGAGAACAUCUUCGGUUGCAGAGGAGGCAGGCUUCGGUGGCGCGAUAGCGCCAACGUCCUCAACCUCCAAUGCAUCACACCACAUGAUGAUGCCUGAAGAGCCUUGGUUUUUUG, the “polymerase ribozyme fitness (log ratio)” value was -5.84.
In the case of GACCAAUCUGCCCUCAGAGCUCGAGAACAUCUUCGGUUGCAGAGGAGGCAGGCUUCGGUAGCGCGAUAGCGCCAACGUCCUCAACCUCCAAUGCAUCCCACCACAUGAUGAUGCCUGAAGAGCCUUGGUUUUUUG, the “polymerase ribozyme fitness (log ratio)” value is reported as -0.626.
In the case of GACCAAUCUGCCCUCAGAGCUCGAGAACAUCUUCGGGUGCAGAGGAGGCAGGCUUCGGUAGCGCGAUAGCGCCAACGUCCUCAACCUCCAAUGCAUCCCACCACAUGAUGAUGCCUGAAGAGCCUUGGUUUUUUG, the “polymerase ribozyme fitness (log ratio)” value is reported as -1.03.
With GACCAAUCUGCCCUCAGAGCUCGAGAACAUCUUCGGGUGCAGAGGAGGCAGGCUUCGGUGGCGCGAUAGCGCCAACGUCCUCAACCCCCAAUGCGUCCCUCCACAUGAUGAUGCCUGAAGAGCCUUGGUAUUUUG the “polymerase ribozyme fitness (log ratio)” value was -3.04.
With GACCAAUCUGCCCUCAGAGCUCGAGAACAUCUUCGGUUGCAGAGGAGGCAGGCUUCGGUGGCGCGAUAGCGACAACGUCCUCAACCUCCAAUGCAUCACACCACAUGAUGAUGCCUGAAGAGGCUUGGUUUUUUG the “polymerase ribozyme fitness (log ratio)” value was -5.43.
In the case of GACCAAUCUGCCCUCAGAGCUCGAGAACAUCUUCGGGUGCAGAGGAGGCAGGCUUCGGUGGCGCGAUAUCGCCAACGUCCUCAACCUCCAAUGCAUCCCUCCACAUGAUGAUGGCUGAAGAGCCUUGGUUUUUUG, the “polymerase ribozyme fitness (log ratio)” value is reported as -1.72.
In the case of GACCAAUCUGCCCUCAGAGCUCGAGAACAUCUUCGGUUGCAGAGGAGGCAGGCUUCGGUGGCGCGAUAGCGCGAACGUCCUCAACCUCCAAUGCAUCCCACCACAUGAUGAUGCCUGAAGAGCCUUGGUGUUUUG, the “polymerase ribozyme fitness (log ratio)” value is reported as -1.38.
For GACCAAUCUGCCCUCAGAGCUCGAGAACAUCUUCGGUUGCAGAGGAGGCAGGCUUCGGUGGCGCGAUAGCGCCAACGUCCUCAACCUCCAAUGCAUCCCACCACAUGAUGAUGACUGAAGAGCUUUGGUUUUUUG, the “polymerase ribozyme fitness (log ratio)” value was -1.39.
For GACCAAUCUGCCCUCAGAGCUCGAGAACAUCUUCGGUUGCAGAGGAUGCAGGCCUCGGUGGCGCGAUAGCGCCAACGGCCUCAAUCUCCAAUGCAUCCCACCACAUGAUGAUGCCUGAUGAGCCUUGGUUUUUUG, the “polymerase ribozyme fitness (log ratio)” value was -3.1.
With GACCAAUCUGCCCUCAGAGCUCGAGAACAUCUUCGGUUGCAGAGGAGGCAGGCUUCGGUGGCGCGAUAGCGCCAACGUCCUCAACCUUCAAUGCAUCCCACCACAUGAUGAUGCCUGAAGAGCCUUGGUUUUUUG the “polymerase ribozyme fitness (log ratio)” value was -0.319.
For GACCAAUCUGCCCUCAGAGCUCGAGAACAUCUUCGGUUGCCGAGGAGGCAGGCUUCGGUGGCGAGAUAGCGCCAACGUCCUCAACCUCCAAUGCAUCCCACCACAUGAAGAUGCCUGAAGAGCCUUGUUUUUUUG, the “polymerase ribozyme fitness (log ratio)” value was -5.77.
With GACCAAUCUGCCCUCAGAGCUCGAGAACAUCUUCGGUUGCAGAGGAGGCAGGCUUCGGUGGCGCGCUAGCGCCAUCGUCCUCAACCUCCAAUGCAUCCCACCACAUGAUGAUGCCUGAACAGCCUUGGUUUUUUG the “polymerase ribozyme fitness (log ratio)” value was -1.07.
With GACCAAUCUGCCCUCAGAGCUCGAGAACAUCUUCGGUUGCAGAAGAGGCAGGCUUCGGUGGCGCGAUAGCGCCAACGUCCUCAACCGCCAAUGCAUCCCACCACAUGAUGAUGCCUGAUGAGCCUUGCUUUUUUG the “polymerase ribozyme fitness (log ratio)” value was -3.53.
For GACCAAUCUGCCCUCAGAGCUCGAGAACAUCUUCGGGUGCAGAGGAGGCAGGCUUCCUUGGCGCGAUAGCGCCAACGUCCUCAACCUCCAAUGCAUCCCACCACAUGAUGAUGCCUGAAUAGCCUUGGUUUUUUG, the “polymerase ribozyme fitness (log ratio)” value was -0.432.
With GACCAAUCUGCCCUCAGAGCUCGAGAACAUCUUCGGUUGCAGAGGAGGCAGGCUUCGGUGGCGCGAUAGCGCCAACGUCCUCAACGUUCAAUGCAUCCCACCAUAAGAUGAUACCUGAAGAGCGUUAGUUUUUUG the “polymerase ribozyme fitness (log ratio)” value was -4.82.
With GACCAAUCUGCCCUCAGAGCUCGAGAACAUCUUCGGUUGCAGAGAAGGCAGGCUUCGGUGGCGCGAUAGCGGCAACGUCCUCAACCUCCAAUGCAUCCCACCACAUGAUGAUGCCUGAAGAGCCUUGGUUUUUUG the “polymerase ribozyme fitness (log ratio)” value was -1.92.
In the case of GACCAAUCUGCCCUCAGAGCUCGAGAACAUCUUCGGUUGCAGAGGAGGCAGGCUUCGGUGGCGCGAUAGCGCCUACGUCCUCAACCUCCAAUGCAUCCCACCACAUGAUGAUGCCUGAAGAGCCUUGGUUUUUUG, the “polymerase ribozyme fitness (log ratio)” value is reported as -0.149.
With GACCAAUCUGCCCUCAGAGCUCGAGAACAUCUUCGGGUGCAGAGGAGGCAGGCUUCGGUUGCGCGAUAGCGGCAACGUCCUCAACCUCCAAUGCAUCCAACCGCAUGAUGAUGUCUGAAGAGCCUUGGCUUUUUG the “polymerase ribozyme fitness (log ratio)” value was -7.36.
